Experimental findings from patent publication US20240288436A1 (KOREA ATOMIC ENERGY RESEARCH INSTITUTE, published 2024) are described below.

Where a chain is given by its changes, count along the chain named. Names may count otherwise.

One assay concerns the target T1, BSA (UniProt P02769 25-607).
T1 construct: Coated at 1 ug/ml as the specificity control; also called BSA solution
Kind of assay: indirect ELISA on coated BSA (1 µg/ml), anti-human IgG kappa-HRP, OD490nm. The protocol: Specifically, the humanized antibody was manufactured in 10 types of Hz2B7-1.1, Hz2B7-1.2, Hz2B7-1.3, Hz2B7-2.1, Hz2B7-3.1, Hz2B7-3.2, Hz2B7-3.3, Hz2B7-4.1, Hz2B7-4.2 and Hz2B7-4.3, by combining 4 heavy chain variable region variants and 3 light chain variable region variants designed through Examples 1 and 2 above. For this, 100 μ of TM4SF4-BSA (1 μg/m ) or BSA solution (1 μg/M ) dissolved in coating buffer (100 mM carbonate/bicarbonate coating buffer, pH 9.6) was added to the bottom of each well of a 96-well plate and adsorbed at 4° C. for more than 16 hours. Next, the coated antigen was washed three times with washing buffer (wash buffer, 0.05% PBS-T, Tween-20), then 200 μ of block buffer (blocking buffer, 5% skim milk in wash buffer) was added to the bottom of each well where the antigen was not adsorbed, reacted at 4° C. for more than 16 hours, and then washed again three times with washing buffer. Then, the 10 combinations of the humanized antibodies and the chimeric antibodies purified through Experimental Example 1 were prepared by diluting them to various concentrations using block buffer, and then 100 μ a of each concentration was added to each well and reacted for 2 hours at room temperature. After washing again three times, 1 mg/ml antibody (α-human IgG-Kappa chain-HRP, Bethyl, USA) for detection was diluted 10,000-fold using block buffer solution, and 100 μ was added to each well and incubated at room temperature for 1 hour. After the reaction was completed, the wells were washed three times with washing buffer, 100 μl of substrate solution (OPD solution, 4 μ 30% H₂O₂, 100 μ OPD stock (40 mg/m ), adjusted to 10 m with phosphate citrate buffer) was added to each well, and the reaction was performed at room temperature. Then, 50 μl of 2.5M H₂SO₄ was added to terminate the reaction. Finally, to measure the activity of the enzyme bound to the solid phase, the absorbance was measured at 490 nm using an ELISA reader (FIG. 10).

For assay [1], the target named is T2, Biotin-GSAGGSTWGYPFHDGDYLNDE synthetic peptide (human TM4SF4 aa 126-140) (human, N-terminal biotin).
T2 construct: Immobilised on a streptavidin sensor chip as the SPR ligand; also called Biotin-hTM4SF4 aa 126-140; human TM4SF4-peptide (hTM4SF4 aa 126-140)
T2 peptide: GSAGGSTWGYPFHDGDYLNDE
Briefly: SPR, Biacore T200, biotin-peptide on streptavidin chip, antibody as analyte, 1:1 binding. How it is done:
(§1) First, a streptavidin-conjugated sensor chip (Series S Senser Chip SA, Cytiva) was inserted into Biacore T200 (Cytiva), and activation buffer (1M NaCl, 50 mM NaOH) was flowed for 30 seconds, followed by HBS-EP buffer (Cytiva) to induce activation and stabilization of the sensor chip surface. […] The analyze antibodies of each concentration were flowed through the constructed ligand-bound streptavidin conjugated sensor chip at a rate of 30 ul/min for 480 seconds to induce binding, and then HBS-EP buffer solution was flowed at the same time and speed, and the degree to which the analyte antibody was dissociated from the ligand peptide was obtained in the form of a response unit. The association rate (Ka), dissociation rate (Kd), and equilibrium dissociation constant (KD, Kd/Ka) values were calculated using Biacore T200 evaluation software (Cytiva) by excluding the ligand-unbound sensor chip response values obtained in the same manner. As a calculation standard, the mass transfer fitting model for the interaction between the ligand peptide and the analyte antibody was analyzed using 1:1 binding.

Assay [2] has as its target T2, Biotin-GSAGGSTWGYPFHDGDYLNDE synthetic …. Kind of assay: SPR (Biacore T200), biotin-TM4SF4(126-140) peptide captured on SA sensor chip, antibody as analyte, 1:1 binding model with mass transfer. The protocol:
as §1

T1 sequence (P02769 25-607 limits assumed): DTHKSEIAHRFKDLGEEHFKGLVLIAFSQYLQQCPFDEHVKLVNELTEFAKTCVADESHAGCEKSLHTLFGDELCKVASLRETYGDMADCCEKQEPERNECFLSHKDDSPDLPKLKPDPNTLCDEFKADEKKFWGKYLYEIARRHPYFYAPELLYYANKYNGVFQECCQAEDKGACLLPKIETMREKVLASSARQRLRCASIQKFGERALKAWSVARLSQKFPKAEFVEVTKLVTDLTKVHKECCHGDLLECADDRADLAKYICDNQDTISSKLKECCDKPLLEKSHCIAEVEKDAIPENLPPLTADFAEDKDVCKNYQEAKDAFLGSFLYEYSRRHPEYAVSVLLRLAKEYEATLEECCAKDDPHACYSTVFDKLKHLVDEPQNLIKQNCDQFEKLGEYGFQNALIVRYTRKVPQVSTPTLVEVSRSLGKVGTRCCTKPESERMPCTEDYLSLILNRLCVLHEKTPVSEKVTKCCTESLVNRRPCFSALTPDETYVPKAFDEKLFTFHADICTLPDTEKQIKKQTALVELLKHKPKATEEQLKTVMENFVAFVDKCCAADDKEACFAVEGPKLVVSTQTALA

B1: Hz2B7-1.3 humanized anti-TM4SF4 antibody (LC N31V) (antibody, V domains shown)
VH: EITLKESGPTLVKPTQTLTLTCTFSGFSLSTYGIGVSWIRQPPGKALEWLAHIWWNDNKYYNTALKSRLTITKDTSKNQVVLTMTNMDPVDTATYYCARKEGSSAPFAYWGQGTLVTVSS
VL: DIVMTQSPDSLAVSLGERATINCKSSQSLLVSSNQKNYLAWYQQKPGQPPKLLIYFASTRESGVPDRFSGSGSGTDFTLTISLMQAEDVAVYYCQQHYRTPPTFGQGTKVEIK
notes: Whole IgG, human IgG1 / kappa constant regions from the pdCMV-dhfr vector; only VH and VL are tied to the antibody; also called HzE2B7-1.3; HzE2B7-1.3(LC N31V)
As for B1, the binding result with BSA is “no binding (tested: 1000 ng/ml)”. This molecule also returned a Kd in assay [1] of 35.4 nM.

B2: Hz2B7-1.1 humanized anti-TM4SF4 antibody (antibody, human IgG1, V domains shown)
VH: B1 VH
VL: B1 VL with V31N
notes: Tested as whole IgG from the pdCMV-dhfr vector (human IgG1 heavy constant, human kappa light constant); also called HzE2B7-1.1; HzE2B7-1.1(origin)
As for B2, the binding result with BSA is “no binding (tested: 1000 ng/ml)”.

B3: Hz2B7-1.2 humanized anti-TM4SF4 antibody (LC N31F) (antibody, V domains shown)
VH: B1 VH
VL: B1 VL with V31F
notes: Whole IgG, human IgG1 / kappa constant regions from the pdCMV-dhfr vector; only VH and VL are tied to the antibody; also called HzE2B7-1.2; HzE2B7-1.2(LC N31F)
On to B3, for which, in the assay with BSA, the binding result is reported as “no binding (tested: 1000 ng/ml)”.

B4: Hz2B7-3.3 humanized anti-TM4SF4 antibody (antibody, human IgG1, V domains shown)
VH: B1 VH with W55S
VL: B1 VL
notes: Whole IgG, human IgG1 / kappa constant regions
In the case of B4, the binding result with BSA is “no binding (tested: 1000 ng/ml)”.

B5: Hz2B7-3.1 humanized anti-TM4SF4 antibody (antibody, human IgG1, V domains shown)
VH: B1 VH with W55S
VL: B1 VL with V31N
notes: as for B4
Turning to B5, the binding result with BSA is recorded as “no binding (tested: 1000 ng/ml)”.

B6: Hz2B7-4.2 humanized anti-TM4SF4 antibody (antibody, human IgG1, V domains shown)
VH: B1 VH with W55Y
VL: B1 VL with V31F
notes: as for B4
As for B6, the binding result with BSA is “no binding (tested: 1000 ng/ml)”.

B7: Hz2B7-3.2 humanized anti-TM4SF4 antibody (HC W55S, LC N31F) (antibody, V domains shown)
VH: B1 VH with W55S
VL: B1 VL with V31F
notes: Whole IgG, human IgG1 / kappa constant regions; also called HzE2B7-3.2; HzE2B7-3.2(HC W55S, LC N31F)
Regarding B7, the binding result with BSA was “no binding (tested: 1000 ng/ml)”. In addition, in assay [1], the affinity, expressed as Kd, was 112 nM. In assay [2], this molecule displayed a koff of 0.000792 s⁻¹ and a kon of 7080 M⁻¹ s⁻¹.

B8: Hz2B7-4.1 humanized anti-TM4SF4 antibody (antibody, human IgG1, V domains shown)
VH: B1 VH with W55Y
VL: B1 VL with V31N
notes: as for B4
On to B8, for which the binding result in the assay with BSA is “no binding (tested: 1000 ng/ml)”.

B9: Hz2B7-4.3 humanized anti-TM4SF4 antibody (HC W55Y, LC N31V) (antibody, V domains shown)
VH: B1 VH with W55Y
VL: B1 VL
notes: Whole IgG, human IgG1 / kappa constant regions; also called HzE2B7-4.3; HzE2B7-4.3(HC W55Y, LC N31V)
For the molecule B9, the binding result with BSA was “no binding (tested: 1000 ng/ml)”.

B10: Hz2B7-2.1 humanized anti-TM4SF4 antibody (antibody, human IgG1, V domains shown)
VH: B1 VH with A46V
VL: B1 VL with V31N
notes: as for B4
Take B10: the binding result with BSA was “no binding (tested: 1000 ng/ml)”.
